Assay results as given in paper PMC4183798.

Biological target: Fc-Nxph1mat-N146D/N156D/N162D (rat) (UniProt Q63366)
Test: SPR; reversed experiment: purified Fc-Nxph1·LNS2-HA complex (formed by co-expression) bound covalently and randomly to a CMD 200m chip (EDC-NHS); running buffer 50 mM Tris pH 7.4; serial injections of elution solutions (pH 4, pH 8.9, 0.25–4 M NaCl, 5 mM EDTA, 6 M urea, 7 M guanidinium chloride); Reichert SR7000DC

Sequence of UniProt Q63366 (Q63366 22-271 N146D/N156D/N162D): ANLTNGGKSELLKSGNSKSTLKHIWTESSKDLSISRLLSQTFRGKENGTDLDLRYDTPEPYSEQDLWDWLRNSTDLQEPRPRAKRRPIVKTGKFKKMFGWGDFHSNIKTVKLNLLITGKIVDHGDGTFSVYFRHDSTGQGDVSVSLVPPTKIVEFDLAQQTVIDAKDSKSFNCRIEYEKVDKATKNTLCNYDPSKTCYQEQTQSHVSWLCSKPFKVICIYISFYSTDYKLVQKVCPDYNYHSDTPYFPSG

C-terminally hemagglutinin (HA)-tagged LNS2 (domain or fragment)
percent of the complex released after injection of 1 M NaCl: 9%
